Experimental findings from patent US20250019437A1 are described below.

T1: human TREM2 (triggering receptor expressed on myeloid cells 2) (human) (UniProt Q9NZC2)
T1 sequence (looked up): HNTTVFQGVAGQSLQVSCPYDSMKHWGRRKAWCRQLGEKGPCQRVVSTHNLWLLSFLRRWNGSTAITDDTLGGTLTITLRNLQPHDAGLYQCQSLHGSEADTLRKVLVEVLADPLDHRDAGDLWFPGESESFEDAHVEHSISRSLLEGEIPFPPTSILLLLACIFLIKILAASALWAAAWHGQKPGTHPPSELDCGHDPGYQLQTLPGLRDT

B1: 6E7 antibody affinity modulation variant V36 (antibody, V domains shown)
VH: EVQLVQSGAEVKKPGESLKISCKGSGYSFTSYWLAWVRQMPGKGLEWMGIIYPGDSDTRYSPSFQGQVTISADKSISTAYLQWSSLKASDTAMYFCARSRTFYYDSSDYFDYWGQGTLVTVSS
VL: DIQMTQSPSSVSASVGDRVTITCRASQGISSWLAWYQQKPGKAPKLLIYAASSRQNGVPSRFSGSGSGTDFTLTISSLQPEDFATYFCQQADSYPRTFGQGTKLEIK
B2: 6E7 antibody affinity modulation variant V39 (antibody, V domains shown)
VH: B1 VH with T30G, L34I, S61N, S99G
VL: B1 VL with R54L, Q55V, Y94S
B3: 6E7 antibody affinity modulation variant V49 (antibody, V domains shown)
VH: B1 VH with T30N, L34I, I50T, Y60L
VL: B1 VL
B4: 6E7 antibody affinity modulation variant V50 (antibody, V domains shown)
VH: B1 VH with T30G, L34I, I50V, S99Q, F110L
VL: B1 VL with Y94L
B5: 6E7 antibody affinity modulation variant V60 (antibody, V domains shown)
VH: B1 VH with S28H, L34I, T58V, S99Q, F110S
VL: B1 VL with R54L, N56R, Q89G, Y94F
B6: 6E7 antibody affinity modulation variant V61 (antibody, V domains shown)
VH: B1 VH with T30S, L34I, S61N, S99G
VL: B1 VL with R54L, Q55V, Y94L
B7: 6E7 antibody affinity modulation variant V37 (antibody, V domains shown)
VH: B1 VH with F29H, L34I, Q65A
VL: B1 VL with R54L, N56W
B8: 6E7 antibody affinity modulation variant V1 (antibody, V domains shown)
VH: B1 VH with Y32S, L34I
VL: B1 VL with R54L, Q55T
B9: 6E7 antibody affinity modulation variant V41 (antibody, V domains shown)
VH: B1 VH with L34I, I50T, S99Q
VL: B1 VL with R54L, Y94F
B10: 6E7 antibody affinity modulation variant V51 (antibody, V domains shown)
VH: B1 VH with L34I, T58V, S99G, Y112N
VL: B1 VL with Y94F
B11: 6E7 antibody affinity modulation variant V40 (antibody, V domains shown)
VH: B1 VH with T30G, L34I, T58V, S99Q, F110S
VL: B1 VL with R54L, N56L, S93R, Y94F
B12: 6E7 antibody affinity modulation variant V38 (antibody, V domains shown)
VH: B1 VH with T30G, L34I, T58V, S99Q
VL: B1 VL with Y94H
B13: 6E7 antibody affinity modulation variant V48 (antibody, V domains shown)
VH: B1 VH with T30G, L34I, T58V, S99M
VL: B1 VL with R54L, N56T, Y94L
B14: 6E7 antibody affinity modulation variant V53 (antibody, V domains shown)
VH: B1 VH with L34I, S63H, S99Q
VL: B1 VL with R54L, Y94F
B15: 6E7 antibody affinity modulation variant V23 (antibody, V domains shown)
VH: B1 VH with L34I, S99Q
VL: B1 VL with R54L, Y94F, R96L
B16: 6E7 antibody affinity modulation variant V33 (antibody, V domains shown)
VH: B1 VH with L34I, S99Q, Y104G
VL: B1 VL with R54L, Y94F
B17: 6E7 antibody affinity modulation variant V20 (antibody, V domains shown)
VH: B1 VH with L34I, I50R, S99Q
VL: B1 VL with R54L, Y94F
B18: 6E7 antibody affinity modulation variant V32 (antibody, V domains shown)
VH: B1 VH with L34I, P62N, S99Q
VL: B1 VL with R54L, Y94F
B19: 6E7 antibody affinity modulation variant V19 (antibody, V domains shown)
VH: B1 VH with Y32S, L34I, S99Q
VL: B1 VL with R54L, Y94F
B20: 6E7 antibody affinity modulation variant V30 (antibody, V domains shown)
VH: B1 VH with Y27S, L34I, S99Q
VL: B1 VL with R54L, Y94F
B21: 6E7 antibody affinity modulation variant V11 (antibody, V domains shown)
VH: B1 VH with L34I, S99Q
VL: B1 VL with R54L, D92A, Y94F
B22: 6E7 antibody affinity modulation variant V7 (antibody, V domains shown)
VH: B1 VH with Y32E, L34I, S99Q
VL: B1 VL with R54L, Y94F
B23: 6E7 antibody affinity modulation variant V10 (antibody, V domains shown)
VH: B1 VH with L34I, S99Q
VL: B1 VL with A50S, R54L, Y94F
B24: 6E7 antibody affinity modulation variant V31 (antibody, V domains shown)
VH: B1 VH with L34I, D57E, S99Q
VL: B1 VL with R54L, Y94F
B25: 6E7 antibody affinity modulation variant V9 (antibody, V domains shown)
VH: B1 VH with L34I, S99Q, T101G
VL: B1 VL with R54L, Y94F
B26: 6E7 antibody affinity modulation variant V22 (antibody, V domains shown)
VH: B1 VH with L34I, S99Q
VL: B1 VL with A50R, R54L, Y94F
B27: 6E7 antibody affinity modulation variant V8 (antibody, V domains shown)
VH: B1 VH with L34I, R59K, S99Q
VL: B1 VL with R54L, Y94F
B28: 6E7 antibody affinity modulation variant V18 (antibody, V domains shown)
VH: B1 VH with W33H, L34I, S99Q
VL: B1 VL with R54L, Y94F
B29: 6E7 antibody affinity modulation variant V21 (antibody, V domains shown)
VH: B1 VH with L34I, S99Q, Y109F
VL: B1 VL with R54L, Y94F

Where a chain is given by its changes, count along the chain named.

The target of the first assay is T1, human TREM2 (triggering receptor expressed on myeloid cells 2) (human). Kind of assay: 2nd screen, 2 nM Ab.
For the molecule B1, the Binding Signal (fold over 6E7 parental antibody) was 4 fold.

Consider B2, for which the Binding Signal (fold over 6E7 parental antibody) stood at 5.11 fold.

Regarding B3, the Binding Signal (fold over 6E7 parental antibody) was 5.02 fold.

Take B4: the Binding Signal (fold over 6E7 parental antibody) is 3.39 fold.

Consider B5, for which the Binding Signal (fold over 6E7 parental antibody) is 3.35 fold.

Consider B6, for which the Binding Signal (fold over 6E7 parental antibody) came to 3.63 fold.

For B7, the Binding Signal (fold over 6E7 parental antibody) stood at 3.69 fold.

As for B8, the Binding Signal (fold over 6E7 parental antibody) is 1.29 fold.

As to B9, the Binding Signal (fold over 6E7 parental antibody) was determined as 0.58 fold.

Consider B10, for which the Binding Signal (fold over 6E7 parental antibody) turned out to be 1.83 fold.

Turning to B11, the Binding Signal (fold over 6E7 parental antibody) turned out to be 3.41 fold.

For B12, the Binding Signal (fold over 6E7 parental antibody) stood at 3.44 fold.

B13: the Binding Signal (fold over 6E7 parental antibody) was 2.3 fold.

Consider B14, for which the Binding Signal (fold over 6E7 parental antibody) worked out at 0.66 fold.

Another assay has the same target. Kind of assay: 1st screen, 10 nM Ab.
On to B1, for which the Binding Signal (fold over 6E7 parental antibody) was 3.38 fold.

B2: the Binding Signal (fold over 6E7 parental antibody) turned out to be 6.15 fold.

For B3, the Binding Signal (fold over 6E7 parental antibody) stood at 6.51 fold.

Regarding B4, the Binding Signal (fold over 6E7 parental antibody) came to 4.1 fold.

Take B5: the Binding Signal (fold over 6E7 parental antibody) came out at 3.26 fold.

Consider B6, for which the Binding Signal (fold over 6E7 parental antibody) came out at 5.08 fold.

For B7, the Binding Signal (fold over 6E7 parental antibody) was determined as 3.46 fold.

On to B8, for which the Binding Signal (fold over 6E7 parental antibody) was 1.68 fold.

B9: the Binding Signal (fold over 6E7 parental antibody) is 1.74 fold.

As for B10, the Binding Signal (fold over 6E7 parental antibody) was 2.81 fold.

Take B11: the Binding Signal (fold over 6E7 parental antibody) was 4.48 fold.

Consider B12, for which the Binding Signal (fold over 6E7 parental antibody) was 4.34 fold.

As for B13, the Binding Signal (fold over 6E7 parental antibody) was 2.42 fold.

Regarding B14, the Binding Signal (fold over 6E7 parental antibody) is 1.25 fold.

The next assay shares this target. Description: 1st screen, 110 nM Ab.
Regarding B15, the Binding Signal (fold over 6E7 parental antibody) was 0.4 fold.

B16: the Binding Signal (fold over 6E7 parental antibody) came out at 0.23 fold.

In the case of B17, the Binding Signal (fold over 6E7 parental antibody) worked out at 0.18 fold.

Regarding B18, the Binding Signal (fold over 6E7 parental antibody) came to 0.82 fold.

Regarding B19, the Binding Signal (fold over 6E7 parental antibody) is 0.59 fold.

For B20, the Binding Signal (fold over 6E7 parental antibody) came out at 0.79 fold.

As to B21, the Binding Signal (fold over 6E7 parental antibody) was determined as 0.79 fold.

Regarding B22, the Binding Signal (fold over 6E7 parental antibody) was 0.11 fold.

Consider B23, for which the Binding Signal (fold over 6E7 parental antibody) came out at 0.76 fold.

Take B24: the Binding Signal (fold over 6E7 parental antibody) worked out at 0.61 fold.

For the molecule B25, the Binding Signal (fold over 6E7 parental antibody) is 0.67 fold.

B26: the Binding Signal (fold over 6E7 parental antibody) was 0.3 fold.

For B27, the Binding Signal (fold over 6E7 parental antibody) amounted to 0.28 fold.

In the case of B28, the Binding Signal (fold over 6E7 parental antibody) amounted to 0.17 fold.

As for B29, the Binding Signal (fold over 6E7 parental antibody) is 0.76 fold.

A further assay shares this target. Kind of assay: 2nd screen, 10 nM Ab.
In the case of B1, the Binding Signal (fold over 6E7 parental antibody) was 3.44 fold.

Take B2: the Binding Signal (fold over 6E7 parental antibody) was 5.81 fold.

Take B3: the Binding Signal (fold over 6E7 parental antibody) turned out to be 6.58 fold.

Regarding B4, the Binding Signal (fold over 6E7 parental antibody) is 4.16 fold.

Consider B5, for which the Binding Signal (fold over 6E7 parental antibody) came out at 3.63 fold.

As for B6, the Binding Signal (fold over 6E7 parental antibody) worked out at 5.22 fold.

For the molecule B7, the Binding Signal (fold over 6E7 parental antibody) turned out to be 3.49 fold.

With B8, the Binding Signal (fold over 6E7 parental antibody) was 1.92 fold.

Turning to B9, the Binding Signal (fold over 6E7 parental antibody) stood at 1.72 fold.

Turning to B10, the Binding Signal (fold over 6E7 parental antibody) was found to be 3.18 fold.

With B11, the Binding Signal (fold over 6E7 parental antibody) was determined as 4.16 fold.

With B12, the Binding Signal (fold over 6E7 parental antibody) turned out to be 4.36 fold.

As for B13, the Binding Signal (fold over 6E7 parental antibody) is 2.54 fold.

For B14, the Binding Signal (fold over 6E7 parental antibody) worked out at 1.17 fold.

The target is the same in the next assay. Kind of assay: 2nd screen, 100 nM Ab.
Take B15: the Binding Signal (fold over 6E7 parental antibody) worked out at 0.4 fold.

Consider B16, for which the Binding Signal (fold over 6E7 parental antibody) amounted to 0.34 fold.

Turning to B17, the Binding Signal (fold over 6E7 parental antibody) was 0.52 fold.

Regarding B18, the Binding Signal (fold over 6E7 parental antibody) is 0.89 fold.

Take B19: the Binding Signal (fold over 6E7 parental antibody) stood at 0.48 fold.

Regarding B20, the Binding Signal (fold over 6E7 parental antibody) turned out to be 0.72 fold.

Turning to B21, the Binding Signal (fold over 6E7 parental antibody) amounted to 0.42 fold.

Consider B22, for which the Binding Signal (fold over 6E7 parental antibody) amounted to 0.32 fold.

Take B23: the Binding Signal (fold over 6E7 parental antibody) was found to be 0.7 fold.

In the case of B24, the Binding Signal (fold over 6E7 parental antibody) was determined as 0.73 fold.

Regarding B25, the Binding Signal (fold over 6E7 parental antibody) is 0.54 fold.

With B26, the Binding Signal (fold over 6E7 parental antibody) was found to be 0.71 fold.

With B27, the Binding Signal (fold over 6E7 parental antibody) came to 0.77 fold.

Regarding B28, the Binding Signal (fold over 6E7 parental antibody) worked out at 0.42 fold.

Turning to B29, the Binding Signal (fold over 6E7 parental antibody) stood at 0.68 fold.
